In patent US20250136677A1 (ZOETIS SERVICES, published 2025):
Changes are numbered by the printed parent chain.

B1: mouse:feline 11E12 chimera (antibody)
heavy: QVQLQQSGAELVKPGASVKLSCKASGYTFKYYDINWVRQRPEQGLEWIGWIFPGDGGTKYNETFKGKATLTTDKSSSTAYMQLSRLTSEDSAVYFCARGGTSVIRDAMDYWGQGTSVTVSSASTTAPSVFPLAPSCGTTSGATVALACLVLGYFPEPVTVSWNSGALTSGVHTFPAVLQASGLYSLSSMVTVPSSRWLSDTFTCNVAHPPSNTKVDKTVRKTDHPPGPKPCDCPKCPPPEAAGAPSIFIFPPKPKDTLSISRTPEVTCLVVDLGPDDSDVQITWFVDNTQVYTAKTSPREEQFNSTYRVVSVLPILHQDWLKGKEFKCKVNSKSLPSPIERTISKAKGQPHEPQVYVLPPAQEELSRNKVSVTCLIKSFHPPDIAVEWEITGQPEPENNYRTTPPQLDSDGTYFVYSKLSVDRSHWQRGNTYTCSVSHEALHSHHTQKSLTQSPGK
light: DIVLTQSPASLAVSLGQRATISCRASESVDNYGISFMHWYQQKPGQPPKLLIYRASNLESGIPARFSGSGSRTDFTLTINPVETDDVATYYCQQSNKDPLTFGAGTKLELKRSDAQPSVFLFQPSLDELHTGSASIVCILNDFYPKEVNVKWKVDGVVQNKGIQESTTEQNSKDSTYSLSSTLTMSSTEYQSHEKFSCEVTHKSLASTLVKSFQRSECQRE
notes: Mouse variable regions on feline IgG constant regions; made in HEK 293 cells
B2: Feline 11E12 1.2 (antibody, V domains shown)
VH: QVLLVQSGAEVKKPGASVKIFCKASGYSFTYYDINWLRQAPEQGLEWMGWIFPGDGGTKYNETFKGRLTLTADTSTNTVYMELSSLRSADTAMYYCARGGTSVIRDAMDYWGQGALVTVSS
VL: EVVLTQSSAFLSRTLKEKATITCRASESVDNYGISFMHWYQQKPNQAPKLLVKRASNLESGAPSRFSGSGSGTDFTLTISSPEPEDAATYYCQQSNKDPLTFGQGT
notes: Feline heavy and kappa constant regions; also called felinized 11E12 1.2

Key:
[1] = biological target: T1, wildtype feline IL-31 protein (Feline_IL31_wildtype) (feline); test: cell-based or functional assay
T1 chain: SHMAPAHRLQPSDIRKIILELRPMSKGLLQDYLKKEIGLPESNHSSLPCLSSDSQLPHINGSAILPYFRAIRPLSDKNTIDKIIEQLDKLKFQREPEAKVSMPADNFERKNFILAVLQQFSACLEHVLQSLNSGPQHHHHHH

[2] = biological target: T2, mutant feline IL-31 11E12 protein (Feline_IL31_11E12_mutant) (feline); test: indirect ELISA, feline IL-31 11E12 mutant coated
T2 construct: also called feline 11E12 mutant; 11E12 IL-31 mutant
T2 chain: T1 chain with D81A, I84A
Description: To determine the impact of mAbs 11E12 and 15H05 ability to bind these mutant forms of feline IL-31, an indirect ELISA was run using the mutants directly coated on to an immunoassay plate. […] When mutant 11E12 is used as a capture protein, binding of mAb 11E12 is highly attenuated and binding of mAb 15H05 is partially attenuated. […] The minor attenuation of mAb 15H05s binding to the 11E12 mutant is likely due to translational effects of the mutations from movement of the two front helices effecting the 15H05 binding site. […] Unlike the 11E12 mutant, the changes in the random coil recognized by mAb 15H05 (mutant 15H05) had no impact on mAb 11E12 binding further supporting the distinction between the two epitopes (FIG. 6C).

[3] = biological target: T1, wildtype feline IL-31 protein …; test: SPR (Biacore), IL-31 on chip, 1:1 fit
Procedure, shortened: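 IL-31 was amine-coupled (NHS/EDC) to the chip at 5 μg/mL and quenched with ethanolamine, and candidate mAbs were flowed over it as analytes. Binding curves were fitted to a 1:1 model.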

[4] = biological target: T3, canine IL-31 protein (Canine_IL31) (canine); test: SPR (Biacore), IL-31 on chip, 1:1 fit
T3 chain: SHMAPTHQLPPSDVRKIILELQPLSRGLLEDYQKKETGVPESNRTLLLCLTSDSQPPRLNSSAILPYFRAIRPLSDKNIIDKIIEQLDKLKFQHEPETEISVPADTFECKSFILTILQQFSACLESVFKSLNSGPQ

[5] = biological target: T1, wildtype feline IL-31 protein …; test: SPR (Biacore), IL-31 on chip
Method: The affinity with which candidate mAbs bind canine and feline IL-31 was determined using surface plasmon resonance (SPR) on a Biacore system (Biocore Life Sciences (GE Healthcare), Uppsala, Sweden). To avoid affinity differences associated with differential surface preparation that can occur when immobilizing antibodies to surfaces; a strategy was employed where IL-31 was directly conjugated to the surface. Immobilization was obtained by amine coupling 5 μg/mL IL-31 using N-hydroxysuccinimide (NHS)/1-Ethyl-3-(3-dimethylaminopropyl) carbodiimide (EDC) chemistry. Chips were quenched with ethanolamine and the affinity with which all candidate mAbs bound to the immobilized IL-31 was evaluated. All curves were fit to a 1:1 model. […] Results for affinity measurements are described herein.
FIG. 2 details the affinity of antibodies with CDRs derived from mouse origin using biacore. […] These observations confirm the correct sequence for both mouse antibodies and indicate conversion to the chimeric form results in antibodies with equivalent or higher affinity when compared to the mouse parent with the exception of the mouse:feline 15H05 chimera which lost some affinity to both IL-31 species as a result of its conversion to the chimeric form. […]

Row | Binder | IC50, inhibition of feline IL-31-induced STAT3 phosphorylation, canine DH82 cells [1] | IC50, inhibition of feline IL-31-induced STAT3 phosphorylation, feline FCWF4 cells [1] | binding result [2] | Kd [3] | koff [3] | kon [3] | Kd [4] | koff [4] | kon [4] | binding result [5]
1 | B1 | 4.4 µg/mL | 3.45 µg/mL | binds | 0.13 nM | 5.06e-05 s⁻¹ | 388000 M⁻¹ s⁻¹ | 0.000127 nM | 8.7e-08 s⁻¹ | 684000 M⁻¹ s⁻¹ | –
2 | B2 | > 100 µg/mL | > 100 µg/mL | – | – | – | – | – | – | – | no binding
